Test results: patent US20120269817A1 (Bayer, published 2012)

T1: human tissue factor pathway inhibitor (TFPI) (human, UniProt P10646 29-304, limits assumed)
T1 sequence (looked up): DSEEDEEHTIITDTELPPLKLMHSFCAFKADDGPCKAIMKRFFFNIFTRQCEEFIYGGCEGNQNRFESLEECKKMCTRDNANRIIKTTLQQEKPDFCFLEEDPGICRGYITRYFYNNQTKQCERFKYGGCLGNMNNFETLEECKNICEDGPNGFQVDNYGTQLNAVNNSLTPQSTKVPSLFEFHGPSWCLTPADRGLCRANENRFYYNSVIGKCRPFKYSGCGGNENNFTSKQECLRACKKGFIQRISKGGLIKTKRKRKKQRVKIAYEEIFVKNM

T2: mouse tissue factor pathway inhibitor (TFPI) (mouse, UniProt O54819 29-289, limits assumed)
T2 construct: Bought protein; also called mouse TFPI; mTFPI
T2 sequence (looked up): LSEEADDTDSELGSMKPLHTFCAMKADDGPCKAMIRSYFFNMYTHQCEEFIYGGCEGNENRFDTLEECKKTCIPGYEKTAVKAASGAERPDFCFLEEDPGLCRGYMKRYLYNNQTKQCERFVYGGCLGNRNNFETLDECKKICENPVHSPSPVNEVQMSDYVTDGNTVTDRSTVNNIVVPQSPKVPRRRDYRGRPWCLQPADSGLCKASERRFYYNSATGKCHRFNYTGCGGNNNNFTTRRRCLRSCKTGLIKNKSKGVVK

T3: human TFPI K1 (human, UniProt P10646 29-107, limits assumed)
T3 construct: domain: K1; also called Kunitz domain 1
T3 sequence (looked up): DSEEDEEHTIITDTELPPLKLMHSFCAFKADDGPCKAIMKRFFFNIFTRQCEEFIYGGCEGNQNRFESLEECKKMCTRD


Experiments:
[1] = target: T4, BSA (bovine, UniProt P02769 25-607); test: ELISA
T4 construct: also called bovine serum albumin
T4 sequence (P02769 25-607 limits assumed): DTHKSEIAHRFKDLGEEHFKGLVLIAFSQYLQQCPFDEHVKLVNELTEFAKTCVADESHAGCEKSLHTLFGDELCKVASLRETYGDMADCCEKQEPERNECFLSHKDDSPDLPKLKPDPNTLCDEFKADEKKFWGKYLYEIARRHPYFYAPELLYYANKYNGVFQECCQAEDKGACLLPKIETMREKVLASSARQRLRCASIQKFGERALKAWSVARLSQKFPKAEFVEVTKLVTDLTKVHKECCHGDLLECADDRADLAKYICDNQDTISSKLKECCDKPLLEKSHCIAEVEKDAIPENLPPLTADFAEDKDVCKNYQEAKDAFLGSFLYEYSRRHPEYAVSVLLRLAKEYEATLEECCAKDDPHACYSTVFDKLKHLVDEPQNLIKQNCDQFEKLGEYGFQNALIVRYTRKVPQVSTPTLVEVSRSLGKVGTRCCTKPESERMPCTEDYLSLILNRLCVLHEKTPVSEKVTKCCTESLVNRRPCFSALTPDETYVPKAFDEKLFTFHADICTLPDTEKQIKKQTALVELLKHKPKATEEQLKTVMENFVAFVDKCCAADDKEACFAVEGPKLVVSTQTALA
Experimental: (§1) To select antibody clones that bind to human TFPI, Fab genes of the phage clones from the second and third round of panning were subcloned into a bacterial expression vector and expressed in E. coli strain TG1. The bacterial lysate was added to the wells of the human TFPI-coated Maxisorp plates. After washing, HRP-conjugated goat anti-human Fab was used as a detection antibody and the plates were developed by adding AmplexRed (Invitrogen) with hydrogen peroxide. A signal of at least five-fold higher than the background was considered as positive. The cross reactivity of the anti-human TFPI antibodies to mouse TFPI was determined by a similar mouse TFPI-binding ELISA. The plates were coated with mouse TFPI (R&D System), BSA and lysozyme. The later two antigens were used as negative controls.

[2] = target: T1, human tissue factor pathway inhibitor …; test: cell-based or functional assay
[3] = target: T1, human tissue factor pathway inhibitor …; test: ELISA, Fab on coated TFPI
Experimental: as §1
(§2) Purified Fab antibodies were used to determine EC₅₀ of anti-TFPI antibodies to human or mouse TFPI. EC₅₀ was assessed in an ELISA, similarly as described above. The results were analyzed using SoftMax. The binding affinity of anti-TFPI antibodies was determined in a Biacore assay. Briefly, the antigen, either human or mouse TFPI, was immobilized on the CM5-chips using the amine coupling kit (GE HealthCare) according to the instructions of the manufacturer. The amount of immobilized TFPI was adjusted to the mass of the antigen to give approximate 300 RU. The antibody Fabs were analyzed in mobile phase and at least five different concentrations (0.1, 0.4, 1.6, 6.4 and 25 nM) of the purified antibodies were used in the Biacore assay. The kinetics and binding affinity were calculated using Biacore T100 Evaluation software.

[4] = target: T2, mouse tissue factor pathway inhibitor …; test: ELISA, Fab on coated TFPI
Experimental: as §1, §2

[5] = target: T1, human tissue factor pathway inhibitor …; test: Biacore, TFPI on CM5 chip, Fab in mobile phase
Experimental: as §2

[6] = target: T2, mouse tissue factor pathway inhibitor …; test: Biacore, TFPI on CM5 chip, Fab in mobile phase
Experimental: as §2

[7] = target: T3, human TFPI K1; test: Western blots and ELISA
Experimental: Western blots and ELISA were used to determine which domain(s) of TFPI of the inhibitory antibodies bind. Recombinant full length human TFPI or TFPI domains were used for these studies. ELISA was similar to Example 3. In the Western Blot, human TFPI or domains were run on 4-12% Bis-Tris SDS PAGE running buffer MES (Invitrogen, Carlsbad, Calif.) and then transferred to cellulose membrane. After incubation with inhibitory antibodies for 10 min, the membrane was washed three times using SNAPid system (Millipore, Billerica, Mass.). A HRP conjugated donkey anti-mouse antibody (Pierce, Rockford, Ill.) at 1 to 10,000 dilution was incubated with the membrane for 10 min. After a similar wash step, the membrane was developed using SuperSignal substrate (Pierce, Rockford, Ill.). Whereas the control anti-Kunitz domain 1 antibody binds to full length TFPI, truncated TFPI and domains, inhibitory anti-TFPI antibodies only bind to TFPI containing Kunitz domain 2.

| binding result [1] | % inhibition of hTFPI activity [2] | dPT in hemoA plasma [2] | EC50 [3] | EC50 [4] | Kd [5] | Kd [6] | binding result [7] | Binder |
| --- | --- | --- | --- | --- | --- | --- | --- | --- |
| no binding | 15% | 70.7 s | 33.6 nM | 47.1 nM | 16 nM | 25.7 nM |  | TP-3G3 Fab (Fab, V domains shown, Human Fab from HuCal Gold, expressed in E. coli TG1) VH: QVQLVESGGGLVQPGGSLRLSCAASGFTFSSYSMSWVRQAPGKGLEWVSSISSSSSNTYYGDSVKGRFTISRDNSKNTLYLQMNSLRAEDTAVYYCARMHYKGMDIWGQGTLVTVSS VL: DIQMTQSPSSLSASVGDRVTITCRASQNIHSHLNWYQQKPGKAPKLLIYDASSLQSGVPSRFSGSGSGTDFTLTISSLQPEDFAVYYCQQYYDYPLTFGQGTKVEIKR |
| no binding | 0% | 62.5 s | 0.6 nM | 0.6 nM | 2.01 nM | 9.33 nM |  | TP-2C7 Fab (Fab, V domains shown, Human Fab from HuCal Gold, expressed in E. coli TG1) VH: QVQLQQSGPGLVKPSQTLSLTCAISGDSVSSNSAAWGWIRQSPGRGLEWLGIIYYRSKWYNHYAVSVKSRITINPDTSKNQFSLQLNSVTPEDTAVYYCARSNWSGYFDYWGQGTLVTVSS VL: DIQMTQSPSSLSASVGDRVTITCRASQDIRNNLAWYQQKPGKAPKLLIYAASSLQSGVPSRFSGSGSGTDFTLTISSLQPEDFAVYYCQQRNGFPLTFGQGTKVEIKR |
| no binding | 23% | 70.9 s | 0.62 nM | 1040 nM | 6.57 nM | 29.8 nM |  | TP-2A2 Fab (Fab, V domains shown, Human Fab from HuCal Gold, expressed in E. coli TG1) VH: QVQLVESGGGLVQPGGSLRLSCAASGFTFSNNAMNWVRQAPGKGLEWVSTISYDGSNTYYADSVKGRFTISRDNSKNTLYLQMNSLRAEDTAVYYCARQAGGWTYSYTDVWGQGTLVTVSS VL: DIELTQPPSVSVAPGQTARISCSGDNIRTYYVHWYQQKPGQAPVVVIYGDSKRPSGIPERFSGSNSGNTATLTISGTQAEDEADYYCQSYDSEADSEVFGGGTKLTVLG |
| no binding | 0% | 72.3 s | 42.8 nM | 327 nM | 21.6 nM | 23.7 nM |  | TP-3A4 Fab (Fab, V domains shown, Human Fab from HuCal Gold, expressed in E. coli TG1) VH: QVQLVESGGGLVQPGGSLRLSCAASGFTFSSYWMHWVRQAPGKGLEWVSSISYDSSNTYYADSVKGRFTISRDNSKNTLYLQMNSLRAEDTAVYYCARYGGMDYWGQGTLVTVSS VL: DIELTQPPSVSVAPGQTARISCSGDNLRDKYASWYQQKPGQAPVLVIYSKSERPSGIPERFSGSNSGNTATLTISGTQAEDEADYYCSSYTLNPNLNYVFGGGTKLTVLG |
|  |  |  |  |  |  |  | no binding | TP-2A8-IgG (antibody, V domains shown, Chimeric IgG: human variable regions on mouse constant regions, murine IgG1 isotype, made in HKB11 cells) VH: QVQLVESGGGLVQPGGSLRLSCAASGFTFRSYGMSWVRQAPGKGLEWVSSIRGSSSSTYYADSVKGRFTISRDNSKNTLYLQMNSLRAEDTAVYYCARKYRYWFDYWGQGTLVTVSS VL: DIELTQPPSVSVAPGQTARISCSGDNLRNYYAHWYQQKPGQAPVVVIYYDNNRPSGIPERFSGSNSGNTATLTISGTQAEDEADYYCQSWDDGVPVFGGGTKLTVLG |
| no binding | 0% | 72.3 s | 32.8 nM | 108 nM | 21.6 nM | 33.6 nM |  | TP-3C1 Fab (Fab, V domains shown, Human Fab from HuCal Gold, expressed in E. coli TG1; Shares its VL with TP-2G9 and its VH with TP-3F2) VH: QVQLVESGGGLVQPGGSLRLSCAASGFTFSSYSMHWVRQAPGKGLEWVSGISYSSSFTYYADSVKGRFTISRDNSKNTLYLQMNSLRAEDTAVYYCARALGGGVDYWGQGTLVTVSS VL: DIALTQPASVSGSPGQSITISCTGTSSDLGGFNTVSWYQQHPGKAPKLMIYSVSSRPSGVSNRFSGSKSGNTASLTISGLQAEDEADYYCQSYDLNNLVFGGGTKLTVLG |
| no binding | 0% | 82.7 s | 10.8 nM | 194 nM | 48.5 nM | 35.7 nM |  | TP-2G9 Fab (Fab, V domains shown, Human Fab from HuCal Gold, expressed in E. coli TG1) VH: QVQLVESGGGLVQPGGSLRLSCAASGFTFNSYAMTWVRQAPGKGLEWVSAIKSDGSNTYYADSVKGRFTISRDNSKNTLYLQMNSLRAEDTAVYYCARNDSGWFDVWGQGTLVTVSS VL: DIALTQPASVSGSPGQSITISCTGTSSDLGGFNTVSWYQQHPGKAPKLMIYSVSSRPSGVSNRFSGSKSGNTASLTISGLQAEDEADYYCQSYDLNNLVFGGGTKLTVLG |
| no binding | 0% | 79 s | 792 nM | 202 nM | 115 nM | 25.2 nM |  | TP-2E5 Fab (Fab, V domains shown, Human Fab from HuCal Gold, expressed in E. coli TG1) VH: QVQLQQSGPGLVKPSQTLSLTCAISGDSVSSNSAAWSWIRQSPGRGLEWLGMIFYRSKWNNDYAVSVKSRITINPDTSKNQFSLQLNSVTPEDTAVYYCARVNANGYYAYVDLWGQGTLVTVSS VL: DIQMTQSPSSLSASVGDRVTITCRASQPIYNSLSWYQQKPGKAPKLLIYGVSNLQSGVPSRFSGSGSGTDFTLTISSLQPEDFAVYYCLQVDNLPITFGQGTKVEIKR |
|  |  |  |  |  |  |  | no binding | TP-2B3 chimeric IgG (antibody, V domains shown, Chimeric IgG: human variable regions on mouse constant regions, murine IgG1 isotype, made in HKB11 cells) VH: QVQLQQSGPGLVKPSQTLSLTCAISGDSVSSNSAAWGWIRQSPGRGLEWLGMIYYRSKWYNSYAVSVKSRITINPDTSKNQFSLQLNSVTPEDTAVYYCARTMSKYGGPGMDVWGQGTLVTVSS VL: DIVLTQSPATLSLSPGERATLSCRASQNIGSNYLAWYQQKPGQAPRLLIYGASTRATGVPARFNGSGSGTDFTLTISSLEPEDFAVYYCQQLNSIPVTFGQGTKVEIKR |
| no binding | 93% | 75.1 s | 74.4 nM | 8.68 nM | 1140 nM | 49.1 nM |  | TP-3G1 Fab (Fab, V domains shown, Human Fab from HuCal Gold, expressed in E. coli TG1) VH: QVQLQQSGPGLVKPSQTLSLTCAISGDSVSSNSGGWGWIRQSPGRGLEWLGLIYYRSKWYNAYAVSVKSRITINPDTSKNQFSLQLNSVTPEDTAVYYCARYLGSNFYVYSDVWGQGTLVTVSS VL: DIQMTQSPSSLSASVGDRVTITCRASQGISSYLHWYQQKPGKAPKLLIYGASTLQSGVPSRFSGSGSGTDFTLTISSLQPEDFATYYCQQQNGYPFTFGQGTKVEIKR |
| no binding | 100% | 53.9 s | 0.74 nM | 2.64 nM | 15.8 nM | 51.8 nM |  | TP-4B7 Fab (Fab, V domains shown, Human Fab from HuCal Gold, expressed in E. coli TG1) VH: QVQLQQSGPGLVKPSQTLSLTCAISGDSVSSNSAAWSWIRQSPGRGLEWLGIIYKRSKWYNDYAVSVKSRITINPDTSKNQFSLQLNSVTPEDTAVYYCARWHSDKHWGFDYWGQGTLVTVSS VL: DIVMTQSPLSLPVTPGEPASISCRSSQSLVFSDGNTYLNWYLQKPGQSPQLLIYKGSNRASGVPDRFSGSGSGTDFTLKISRVEAEDVGVYYCQQYDSYPLTFGQGTKVEIKR |
